Experiments:
[1] = tested on: Cc1cc(=O)oc2cc(NC(=O)[C@H](CCCNC(=N)N)NC(=O)[C@H](CCCNC(=N)N)NC(=O)OCc3ccccc3)ccc12; test: purified protein; conditions: 100 mM sodium acetate pH 5.0, 10 mM DTT, 37 °C, 20 nM enzyme, substrate range 0.1–100 μM
Excerpt: (§1) fluorogenic AMC release, Michaelis-Menten on malapain-2 (MP-2)

[2] = tested on: Cc1cc(=O)oc2cc(NC(=O)[C@H](CCCNC(=N)N)NC(=O)[C@H](CC(C)C)NC(=O)OCc3ccccc3)ccc12; test: purified protein; conditions: 100 mM sodium acetate pH 5.0, 10 mM DTT, 37 °C, 20 nM enzyme, substrate range 0.1–100 μM
Excerpt: as §1

malapain-2 (MP-2) (Plasmodium malariae)
Km [1]: 846.4 ± 0.6 µM | Km [2]: 111.2 ± 1.2 µM
